The results in this text go back to patent US20200325179A1 (EUROPEAN MOLECULAR BIOLOGY LABORATORY, published 2020).

For assay [1], the target named is T1, ADDomer with one cysteine mutation A477C (synthetic penton base protomer based on …).
T1 construct: Virus-like particle: 12 pentamers of 5 engineered penton base protomers each; also called Cys-ADDomer; Cys modified ADDomer
T1 chain: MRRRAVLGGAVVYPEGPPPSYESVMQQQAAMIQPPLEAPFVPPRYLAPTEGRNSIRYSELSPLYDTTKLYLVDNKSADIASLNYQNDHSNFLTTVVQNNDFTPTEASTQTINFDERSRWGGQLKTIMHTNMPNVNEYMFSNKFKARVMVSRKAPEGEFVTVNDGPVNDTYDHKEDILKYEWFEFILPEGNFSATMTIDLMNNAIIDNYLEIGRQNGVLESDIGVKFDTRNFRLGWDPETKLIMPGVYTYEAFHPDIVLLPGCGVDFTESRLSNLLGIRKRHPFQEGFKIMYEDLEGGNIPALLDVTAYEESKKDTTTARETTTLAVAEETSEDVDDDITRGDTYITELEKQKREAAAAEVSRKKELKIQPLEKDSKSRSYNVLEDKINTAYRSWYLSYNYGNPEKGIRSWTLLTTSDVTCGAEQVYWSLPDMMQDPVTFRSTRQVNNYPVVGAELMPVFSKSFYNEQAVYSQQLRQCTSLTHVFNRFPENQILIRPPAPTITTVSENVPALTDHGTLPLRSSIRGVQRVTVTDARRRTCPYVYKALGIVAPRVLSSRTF
The assay can be described thus: non-reducing SDS-PAGE and blot; biotinylated peptide detected with Alexa488 avidin, ADDomer with a specific antibody and a Cy3 secondary antibody; covalent disulfide. As to the method:
(§1) FIG. 14: Covalent coupling of “STICKER” peptide to ADDomer containing targeted cystein mutations. Wild-type ADDomer (wt) and ADDomer with one cysteine mutation (K363C, Q476C or A477C, respectively) were incubated with STICKER peptides (C20 (SEQ ID NO: 77) and C9 (SEQ ID NO: 75), respectively). SDS-PAGE analysis was performed under reducing (+bMeSH) and non-reducing (−bMeSH) conditions and transferred to a PVDF membrane. ADDomer (dark grey) and STICKER peptide (light grey) were visualized by binding of labelled antibody and Avidin binding, respectively, evidencing STICKER binding to cysteine-mutant ADDomer by specific disulfide bond formation (marked by white circle in lower panel)
(§2) To widen the ADDomer potential, a system enabling the addition of extra epitopes at the ADDomer was developed. Single cysteines were inserted at specific locationd of the ADDomer sequence (either K363C or Q476C or A477C). […] Complexes were run on SDS-PAGE and ADDomer was detected by a specific antibody and a secondary antibody labelled with Cy3 while the biotinylated peptide was detected by Alexa488 labeled avidin. When the right Cys-ADDomer/peptide was used, the presence of peptide was detected at the ADDomer band size (circle in FIG. 14). […]

The target in assay [2] is T2, ADDomer with one cysteine mutation Q476C (synthetic penton base protomer based on …).
T2 construct: Virus-like particle: 12 pentamers of 5 engineered penton base protomers each; also called Cys-ADDomer; Cys modified ADDomer
T2 chain: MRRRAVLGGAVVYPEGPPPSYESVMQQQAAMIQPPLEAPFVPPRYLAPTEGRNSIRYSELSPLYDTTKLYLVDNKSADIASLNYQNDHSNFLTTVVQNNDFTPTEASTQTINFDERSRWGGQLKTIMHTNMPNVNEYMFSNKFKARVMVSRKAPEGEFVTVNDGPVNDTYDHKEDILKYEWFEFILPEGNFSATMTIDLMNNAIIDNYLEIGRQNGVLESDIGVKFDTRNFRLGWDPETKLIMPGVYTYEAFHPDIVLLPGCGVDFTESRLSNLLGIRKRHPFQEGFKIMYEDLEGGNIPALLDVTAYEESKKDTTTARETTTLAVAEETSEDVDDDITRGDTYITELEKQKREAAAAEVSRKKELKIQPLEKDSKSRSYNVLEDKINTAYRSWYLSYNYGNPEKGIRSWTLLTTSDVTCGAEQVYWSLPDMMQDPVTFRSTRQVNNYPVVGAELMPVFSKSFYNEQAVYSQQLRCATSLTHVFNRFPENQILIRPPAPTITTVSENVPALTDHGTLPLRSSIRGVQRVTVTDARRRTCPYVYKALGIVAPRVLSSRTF
The assay is described as above. As to the method: as §1, §2

Ends that are not written are not given here.

For the molecule AKRARLSTCFNPVYPYEDES (also: biotinylated (position not given here), Detected by Alexa488 labelled avidin) [STICKER peptide C9 (fibre protein fragment, Cys at position 9)], the binding result in assay [1] and in assay [2] was “binds” throughout.
